These results are taken from patent US20210324099A1 (Chugai, published 2021).

Experiment [1] concerns the target T1, hFcgRIIIaV (human, UniProt P08637 17-208).
T1 construct: extracellular domain; also called human FcγRIIIa allotype V158
As to the kind of experiment: SPR 25C; relative to A375-G1T3/B167-Lamlib.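 Further: SPR with antibody captured on an anti-human Fab-lambda chip, human FcγR analyte at 8 nM for FcγRIa or 1000 nM for the others, pH 7.4, FcγR RU per captured antibody unit.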

Experiment [2] addresses T2, hFcgRIIIaF (human, UniProt P08637 17-208).
T2 construct: extracellular domain; also called human FcγRIIIa allotype F158
As to the kind of experiment: SPR 25C; relative to A375-G1T3/B167-Lamlib.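 Further: SPR with antibody captured on an anti-human Fab-lambda chip, human FcγR analyte at 8 nM for FcγRIa or 1000 nM for the others, pH 7.4, FcγR RU per captured antibody unit.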

The target of experiment [3] is T3, hFcgRIIb (human, UniProt P31994 43-217).
T3 construct: extracellular domain; also called human FcγRIIb
T3 sequence (looked up): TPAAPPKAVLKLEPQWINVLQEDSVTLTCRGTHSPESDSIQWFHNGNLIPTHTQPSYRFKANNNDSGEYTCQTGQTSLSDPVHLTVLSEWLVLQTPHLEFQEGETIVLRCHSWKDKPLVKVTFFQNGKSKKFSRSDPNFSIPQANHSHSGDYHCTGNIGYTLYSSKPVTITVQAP
As to the kind of experiment: SPR 25C; relative to A375-G1T3/B167-Lamlib.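 Further: SPR with antibody captured on an anti-human Fab-lambda chip, human FcγR analyte at 8 nM for FcγRIa or 1000 nM for the others, pH 7.4, FcγR RU per captured antibody unit.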

The target in experiment [4] is T4, hFcgRIIaR (human, UniProt P12318 34-217).
T4 construct: extracellular domain; also called human FcγRIIa type R (R131)
T4 sequence (looked up): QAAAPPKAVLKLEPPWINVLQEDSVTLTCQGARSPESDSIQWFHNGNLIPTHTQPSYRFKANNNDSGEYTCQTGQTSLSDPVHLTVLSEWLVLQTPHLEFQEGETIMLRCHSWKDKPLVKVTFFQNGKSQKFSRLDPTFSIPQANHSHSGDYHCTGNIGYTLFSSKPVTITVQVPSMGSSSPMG
As to the kind of experiment: SPR 25C; relative to A375-G1T3/B167-Lamlib.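 Further: SPR with antibody captured on an anti-human Fab-lambda chip, human FcγR analyte at 8 nM for FcγRIa or 1000 nM for the others, pH 7.4, FcγR RU per captured antibody unit.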

In experiment [5] the target is T5, hFcgRIa (human, UniProt P12314 16-292).
T5 construct: extracellular domain; also called human FcγRIa; FcγRI
As to the kind of experiment: SPR 25C; relative to A375-G1T3/B167-Lamlib.

In experiment [6] the target is T6, hFcgRIIaH (human, UniProt P12318 34-217).
T6 construct: extracellular domain; also called human FcγRIIa type H (H131)
T6 sequence (looked up): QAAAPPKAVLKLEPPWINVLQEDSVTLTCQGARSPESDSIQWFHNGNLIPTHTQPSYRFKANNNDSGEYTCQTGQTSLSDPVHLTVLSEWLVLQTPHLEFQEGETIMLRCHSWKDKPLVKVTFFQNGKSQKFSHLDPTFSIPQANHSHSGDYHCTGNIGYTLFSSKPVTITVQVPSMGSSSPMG
As to the kind of experiment: SPR 25C; relative to A375-G1T3/B167-Lamlib.

Experiment [7] deals with T1, hFcgRIIIaV. As to the kind of experiment: SPR 25C.
Procedure: (§1) Biacore T200 (GE Healthcare) was used to evaluate the binding activity to the respective human Fcγ receptor (hereafter referred to as FcγR). Measurement was performed at 25° C. using 50 mM phosphate, 150 mM NaCl, 0.05 w/v %-P20, pH 7.4 as buffer. About 1000 RU of antibody was captured using a sensor chip immobilized with CaptureSelect™ Human Fab-lambda Kinetics Biotin Conjugate (Thermo Fisher Scientific) as a molecule for ligand capturing. Human FcγR was diluted to 8 nM for FcγRIa and 1000 nM for other FcγR in the measurement buffer, and it was interacted to the captured antibody. The binding activity of each antibody to FcγR was assessed by calculating the binding amount of FcγR (RU) per unit amount of antibody using Biacore T200 Evaluation Software 2.0.
The target of experiment [8] is T2, hFcgRIIIaF. As to the kind of experiment: SPR 25C.
Procedure: as §1
Experiment [9] addresses T3, hFcgRIIb. As to the kind of experiment: SPR 25C.
Procedure: as §1
The target in experiment [10] is T4, hFcgRIIaR. As to the kind of experiment: SPR 25C.
Procedure: as §1
Experiment [11] has as its target T5, hFcgRIa. As to the kind of experiment: SPR 25C.
Procedure: as §1
Experiment [12] addresses T6, hFcgRIIaH. As to the kind of experiment: SPR 25C.
Procedure: as §1
The next experiment deals with human FcRn (human, UniProt P55899 24-290; P61769 21-119, limits assumed). As to the kind of experiment: SPR 25C pH 6.0, steady state.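 Further: antibody captured on chip via anti-human Fab-lambda ligand, human FcRn injected as analyte in 50 mM phosphate buffer with 150 mM NaCl and P20.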
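Wherever binding per 1RU of antibody is given: biacore SPR with antibody captured on an anti-human Fab lambda chip, human FcγR injected at 1000 nM (FcγRIa at 8 nM) in pH 7.4 phosphate buffer.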

T2 sequence (P08637 17-208): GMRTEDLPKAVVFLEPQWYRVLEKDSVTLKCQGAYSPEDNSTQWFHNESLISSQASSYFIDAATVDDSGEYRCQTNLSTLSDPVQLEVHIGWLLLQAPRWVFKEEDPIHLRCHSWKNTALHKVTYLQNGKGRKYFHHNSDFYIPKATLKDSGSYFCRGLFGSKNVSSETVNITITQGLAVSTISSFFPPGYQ
Chain of human FcRn (P55899 24-290 limits assumed, chain 1 of 2): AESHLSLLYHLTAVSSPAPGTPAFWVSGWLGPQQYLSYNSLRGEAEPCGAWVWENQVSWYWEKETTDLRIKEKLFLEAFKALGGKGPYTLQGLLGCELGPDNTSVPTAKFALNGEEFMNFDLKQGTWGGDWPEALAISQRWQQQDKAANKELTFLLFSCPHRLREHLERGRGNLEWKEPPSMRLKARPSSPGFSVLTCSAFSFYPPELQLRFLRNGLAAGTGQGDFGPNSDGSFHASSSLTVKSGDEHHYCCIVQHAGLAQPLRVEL
Chain of human FcRn (P61769 21-119 limits assumed, chain 2 of 2): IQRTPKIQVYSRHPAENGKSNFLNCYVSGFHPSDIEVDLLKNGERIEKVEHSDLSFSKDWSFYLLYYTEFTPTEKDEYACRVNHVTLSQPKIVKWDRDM
T5 sequence (P12314 16-292): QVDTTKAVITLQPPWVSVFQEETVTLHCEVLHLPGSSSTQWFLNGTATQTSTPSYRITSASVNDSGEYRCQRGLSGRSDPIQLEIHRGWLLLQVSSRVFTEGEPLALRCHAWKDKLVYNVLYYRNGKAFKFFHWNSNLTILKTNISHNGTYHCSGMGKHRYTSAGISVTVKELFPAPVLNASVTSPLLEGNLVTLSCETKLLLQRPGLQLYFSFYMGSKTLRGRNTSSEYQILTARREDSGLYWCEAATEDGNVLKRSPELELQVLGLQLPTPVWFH
T1 sequence (P08637 17-208 F176V): as the sequence (P08637 17-208) above, with F160V counted along it
Procedure for human FcRn: Biacore T200 (GE Healthcare) was used to assess the binding activity to human FcRn. Measurement was performed at 25° C. using 50 mM phosphate, 150 mM NaCl, 0.05 w/v %-P20, pH 6.0 as buffer. […] About 400 RU of antibody was captured using a sensor chip immobilized with CaptureSelect™ Human Fab-lambda Kinetics Biotin Conjugate (Thermo Fisher Scientific) as a molecule for ligand capturing, followed by the binding of human FcRn diluted in measuring buffer. The activity of the respective antibodies to bind FcRn was assessed by calculating KD (mol/L) by the steady-state model using Biacore T200 Evaluation Software 2.0.

B1: A375-SCF032/B167-Lamlib (antibody, human IgG1, lambda)
heavy: EVQLVESGGGLVKPGGSLRLSCAASGFTFSTFTMNWVRQAPGKGLEWVSSISSKSTYIEYADSFKVRFTISRDNAKNSLYLQMNSLRAEDTAVYYCARYGAKNFLNWVFDYWGQGTLVTVSSASTKGPSVFPLAPSSKSTSGGTAALGCLVKDYFPEPVTVSWNSGALTSGVHTFPAVLQSSGLYSLSSVVTVPSSSLGTQTYICNVNHKPSNTKVDKKVEPKSCDKTHTCPPCPAPEYLGGDSVFLFPPKPKDVLMISRTPEVTCVVIDVSHEDPEVKFNWYVDGVEVHNAKTKPREEQYNSTYRVVSVLPVLHRDWLNGKEYKCKVSNKALPKPIEKTISKAKGQRREPQVYTLPPSREEMTKNQVSLTCLVKGFYPSDIAVEWESNGQPENNYKTTPPVLDSDGSFFLYSKLTVDKSRWQQGNVFSCSVMHEALHNHYTQKSLSLSP
light: QSALTQPPSASGSPGQTVTISCTGTRYDVGYYEYVSWYQQHPGKAPKLMIYETSKRLSGVPDRFSGSKSGNTASLTVSGLQAEDEADYYCSSYRYEHQVSFGGGTKLTVLGQPKAAPSVTLFPPSSEELQANKATLVCLISDFYPGAVTVAWKADSSPVKAGVETTTPSKQSNNKYAASSYLSLTPEQWKSHRSYSCQVTHEGSTVEKTVAPTECS
In the case of B1, the relative binding amount with hFcgRIIIaV [1] was -0.01; with hFcgRIIIaF [2], -0.03; with hFcgRIIb [3], 7.14; in the experiment with hFcgRIIaR [4], -0.01; in the experiment with hFcgRIa [5], 0.06; in the experiment with hFcgRIIaH [6] it was 0.05. Also, the “binding per 1RU of antibody” value with hFcgRIIIaV [7] was -0.0007 RU; with hFcgRIIIaF [8], -0.0007 RU; in the experiment with hFcgRIIb [9], 0.0782 RU; with hFcgRIIaR [10], -0.0004 RU; in the experiment with hFcgRIa [11] it was 0.0049 RU; with hFcgRIIaH [12], 0.003 RU. The same molecule displayed a Kd with human FcRn of 0.966 µM.

B2: A375-SCF039/B167-Lamlib (antibody, human IgG1, lambda)
heavy: EVQLVESGGGLVKPGGSLRLSCAASGFTFSTFTMNWVRQAPGKGLEWVSSISSKSTYIEYADSFKVRFTISRDNAKNSLYLQMNSLRAEDTAVYYCARYGAKNFLNWVFDYWGQGTLVTVSSASTKGPSVFPLAPSSKSTSGGTAALGCLVKDYFPEPVTVSWNSGALTSGVHTFPAVLQSSGLYSLSSVVTVPSSSLGTQTYICNVNHKPSNTKVDKKVEPKSCDKTHTCPPCPAPELWNGPSVFLFPPKPKDTLMISRTPEVTCVVVDVSDEDPEVKFNWYVDGVEVHNAKTKPREELYNSTYRVVSVLTVLHQDWLNGKEYKCKVSNTALPKPIEKTISKAKGQRREPQVYTLPPSREEMTKNQVSLTCLVKGFYPSDIAVEWESNGQPENNYKTTPPVLDSDGSFFLYSKLTVDKSRWQQGNVFSCSVMHEALHNHYTQKSLSLSP
light: QSALTQPPSASGSPGQTVTISCTGTRYDVGYYEYVSWYQQHPGKAPKLMIYETSKRLSGVPDRFSGSKSGNTASLTVSGLQAEDEADYYCSSYRYEHQVSFGGGTKLTVLGQPKAAPSVTLFPPSSEELQANKATLVCLISDFYPGAVTVAWKADSSPVKAGVETTTPSKQSNNKYAASSYLSLTPEQWKSHRSYSCQVTHEGSTVEKTVAPTECS
For B2, the relative binding amount with hFcgRIIIaV [1] amounted to 0.02; in the experiment with hFcgRIIIaF [2], 0.04; with hFcgRIIb [3], 4.85; with hFcgRIIaR [4], 1.17; with hFcgRIa [5], 0.02; with hFcgRIIaH [6] it was 0.94. For the same molecule, the “binding per 1RU of antibody” value in the experiment with hFcgRIIIaV [7] was 0.0013 RU; with hFcgRIIIaF [8], 0.0008 RU; in the experiment with hFcgRIIb [9], 0.0531 RU; with hFcgRIIaR [10] it was 0.0542 RU; with hFcgRIa [11] it was 0.0018 RU; with hFcgRIIaH [12], 0.0535 RU. In the experiment with human FcRn, this molecule displayed a Kd of 1.09 µM.

B3: A375-SCF039a/B167-Lamlib (antibody, human IgG1, lambda)
heavy: EVQLVESGGGLVKPGGSLRLSCAASGFTFSTFTMNWVRQAPGKGLEWVSSISSKSTYIEYADSFKVRFTISRDNAKNSLYLQMNSLRAEDTAVYYCARYGAKNFLNWVFDYWGQGTLVTVSSASTKGPSVFPLAPSSKSTSGGTAALGCLVKDYFPEPVTVSWNSGALTSGVHTFPAVLQSSGLYSLSSVVTVPSSSLGTQTYICNVNHKPSNTKVDKRVEPKSCDKTHTCPPCPAPELWNGPSVFLFPPKPKDTLMISRTPEVTCVVVDVSDEDPEVKFNWYVDGVEVHNAKTKPREELYNSTYRVVSVLTVLHQDWLNGKEYKCKVSNTALPKPIEKTISKAKGQRREPQVYTLPPSREEMTKNQVSLTCLVKGFYPSDIAVEWESNGQPENNYKTTPPVLDSDGSFFLYSKLTVDKSRWQQGNVFSCSVMHEALHNHYTQKSLSLSP
light: QSALTQPPSASGSPGQTVTISCTGTRYDVGYYEYVSWYQQHPGKAPKLMIYETSKRLSGVPDRFSGSKSGNTASLTVSGLQAEDEADYYCSSYRYEHQVSFGGGTKLTVLGQPKAAPSVTLFPPSSEELQANKATLVCLISDFYPGAVTVAWKADSSPVKAGVETTTPSKQSNNKYAASSYLSLTPEQWKSHRSYSCQVTHEGSTVEKTVAPTECS
As to B3, the relative binding amount was 0.02 with hFcgRIIIaV [1]; 0.06 with hFcgRIIIaF [2]; 4.93 with hFcgRIIb [3]; 1.2 with hFcgRIIaR [4]; 0.02 with hFcgRIa [5]; 0.96 with hFcgRIIaH [6]. For the same molecule, the “binding per 1RU of antibody” value with hFcgRIIIaV [7] came to 0.0013 RU; with hFcgRIIIaF [8] it was 0.0012 RU; with hFcgRIIb [9] it was 0.054 RU; in the experiment with hFcgRIIaR [10], 0.0554 RU; in the experiment with hFcgRIa [11], 0.0018 RU; in the experiment with hFcgRIIaH [12], 0.0542 RU. The same molecule showed a Kd with human FcRn of 1.11 µM.

B4: A375-SCF033/B167-Lamlib (antibody, human IgG1, lambda)
heavy: EVQLVESGGGLVKPGGSLRLSCAASGFTFSTFTMNWVRQAPGKGLEWVSSISSKSTYIEYADSFKVRFTISRDNAKNSLYLQMNSLRAEDTAVYYCARYGAKNFLNWVFDYWGQGTLVTVSSASTKGPSVFPLAPSSKSTSGGTAALGCLVKDYFPEPVTVSWNSGALTSGVHTFPAVLQSSGLYSLSSVVTVPSSSLGTQTYICNVNHKPSNTKVDKKVEPKSCDKTHTCPPCPAPEYLGDDSVFLFPPKPKDVLMISRTPEVTCVVVDVSHEDPEVKFNWYVDGVEVHNAKTKPREEQYNSTYRVVSVLPVLHRDWLNGKEYKCKVSNKALPKPIEKTISKAKGQRREPQVYTLPPSREEMTKNQVSLTCLVKGFYPSDIAVEWESNGQPENNYKTTPPVLDSDGSFFLYSKLTVDKSRWQQGNVFSCSVMHEALHNHYTQKSLSLSP
light: QSALTQPPSASGSPGQTVTISCTGTRYDVGYYEYVSWYQQHPGKAPKLMIYETSKRLSGVPDRFSGSKSGNTASLTVSGLQAEDEADYYCSSYRYEHQVSFGGGTKLTVLGQPKAAPSVTLFPPSSEELQANKATLVCLISDFYPGAVTVAWKADSSPVKAGVETTTPSKQSNNKYAASSYLSLTPEQWKSHRSYSCQVTHEGSTVEKTVAPTECS
Turning to B4, the relative binding amount turned out to be 0 with hFcgRIIIaV [1]; 0 with hFcgRIIIaF [2]; 8.94 with hFcgRIIb [3]; 0.55 in the experiment with hFcgRIIaR [4]; 0.04 with hFcgRIa [5]; 0.18 with hFcgRIIaH [6]. Moreover, the “binding per 1RU of antibody” value with hFcgRIIIaV [7] stood at 0.0002 RU; in the experiment with hFcgRIIIaF [8], 0 RU; with hFcgRIIb [9], 0.0979 RU; with hFcgRIIaR [10], 0.0255 RU; in the experiment with hFcgRIa [11], 0.0033 RU; in the experiment with hFcgRIIaH [12], 0.0103 RU. In the experiment with human FcRn, this molecule showed a Kd of 0.874 µM.
